Test results reported in the supplement of paper PMC12042874.
± gives the uncertainty stated by the source.

assay: amyloid nucleation score (Sup35N fusion, yeast selection) (log enrichment); library NNK1; higher = more nucleation; inactive = no reads after selection
Method in brief: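 For the nucleation score, DiMSum gave the log enrichment of output over input reads, centred on the mode score of non-aggregating sequences. Psi-negative yeast expressing Sup35N fused to peptides of 20 random codons were induced with 100 μM copper sulfate for 24 hours and grown 7 days at 30°C on medium lacking adenine and uracil. Input and output plasmid inserts were Illumina-sequenced, and sequences with under 100 input reads were excluded.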

Substance | amyloid nucleation score
LGYEGWYTRVIYGKVALWME | -0.215 ± 0.59
LGYRPWFWTTAFSSLADLAR | -0.907 ± 1.3
LGYVIYFVFWRRHSFSYSAC | -0.407 ± 0.31
LGYVYSKSTSSTQSLFICSG | -0.287 ± 0.26
LHERRYSLLSLESLIHNKSC | -0.752 ± 0.61
LHLYIMS | inactive
LHQVMAWCMGEKWAETRSPW | -0.703 ± 2.1
LHRRSDNGESFWTEGSITFV | -0.086 ± 0.25
LHTCHSLLPLIEYDFISYGV | -0.208 ± 0.7
LHWFQLMANFI | -0.069 ± 0.28
LIEGRGIRGLVCCFSISFA | 8.375 ± 0.048
LIFVNVSGL | 6.406 ± 0.054
LIHVCQYCVRPVNGGSVNLR | 0.264 ± 0.44
LIHVRCSLVQCANSELQGAG | 2.65 ± 0.28
LIIVEIMLDDVSVVSFRVIH | 0.195 ± 0.6
LIMVFVDSLRNRLELCFFQC | inactive
LINSFLVLWKPFIFAEGRTR | 7.903 ± 0.066
LIQIDLF | -0.264 ± 0.56
LIRNINHWASYRFFCNCSSW | 6.443 ± 0.06
LIRREHSRL | inactive
LIVIPKGG | 1.58 ± 0.51
LIVNLDMTSVLHVSGELR | 5.22 ± 0.078

Substance | amyloid nucleation score
LIVRNRHCLGAPFENFFSAR | 0.671 ± 0.37
LIYESNREHYYMRSRSAVTR | -0.825 ± 0.99
LIYYNLIGHRVSWGEVGYFV | 0.014 ± 0.35
LKFKARLRRTLPVQQNRAIG | inactive
LKGKTLVMSFFRSAKITVAH | inactive
LKGVIYAVANWGWIISGHEV | 0.837 ± 0.23
LKISWR | 0.724 ± 0.36
LKLCKVRMQTLLNDVGTSCP | 0.025 ± 0.4
LKLYLYTLECTFDELDYGD | 0.161 ± 0.41
LKQSYKKPY | inactive
LKTYFGVVSRTLGLCLREEI | 0.489 ± 0.43
LKYLR | 1.14 ± 0.15
LLASAIHLNRTADAMKEYYP | -0.036 ± 0.39
LLDGYSLDNIGLEVGNASSN | 0.53 ± 0.41
LLFKNRISPITTI | 0.174 ± 0.47
LLFLSMMVSASCC | 1.09 ± 0.39
LLFYLRSLKMYVLYSGHTMS | 1.25 ± 0.45
LLFYYLHIFMFSDDRVM | 0.582 ± 0.56
LLGRYNLLYIGMFRATRGGC | -0.094 ± 1.5
LLIEWRLDSGWCTTGSENRD | -0.347 ± 0.4
LLIGYWLNLECLRYEMCHVL | -0.396 ± 0.66
LLLGDC | -1.43 ± 2.4

Substance | amyloid nucleation score
LLLGW | -0.102 ± 0.32
LLLIFNEELW | -0.28 ± 0.43
LLNAFWSFAY | 1.6 ± 0.32
LLNFCIWAKCWYRLVCNC | 0.209 ± 0.93
LLPRGESHVKLKDRGSRMPW | 0.921 ± 0.5
LLRGSCFMCSLLDYALVKEG | 3.84 ± 0.1
LLRLFALLTLNNLV | -0.296 ± 0.31
LLRLVSFCCFSNRN | 6.05 ± 0.053
LLRYITARETSLTQSQP | 0.298 ± 0.53
LLSFGTFTGPKRVYLSLSMV | 0.059 ± 0.86
LLVGMPPNIDM | -0.078 ± 0.41
LLVSLSNCFLIWSSAGSMGG | 1.81 ± 0.23
LLVWNVNGSAMSCNDRCLQS | 7.141 ± 0.049
LLYRMKVFADVGGDVLKSEG | inactive
LLYVLSTLIMYTSTMYIYQV | 0.662 ± 0.51
LLYVRVHCLTAGFADSEASI | -0.168 ± 0.4
LMAHSGSAP | 3.3 ± 0.19
LMAPLCICKNFRPELWFNRI | -0.115 ± 0.58
LMCWFAGEDPVFVYTVFIVT | -1.49 ± 1.4
LMGGNDNWGTTNPEDGILIW | -0.347 ± 0.41
LMLISHEDFLLVFAWFN | -0.062 ± 0.54
LMLVRLVCLHLDDETHIRQR | inactive

Substance | amyloid nucleation score
LMMQRERPFRLYL | -1.34 ± 1.6
LMNFSNWDELR | -1.26 ± 2.4
LMSLIMI | 0.032 ± 0.44
LMTLDYSTYQHRRATDVWDG | -0.65 ± 1.3
LMTNKKNVMMRRIHTGVASN | 0.368 ± 0.97
LMWGIAYCYSVDLC | 5.386 ± 0.051
LMYQSFRLTGSYVVIFLYES | -0.543 ± 1.1
LMYSNRYF | 4.1 ± 0.079
LMYSVS | 0.434 ± 0.38
LNAESLMSRFVCGMFVVTKG | 0.112 ± 1.2
LNCCRMGGVLS | 0.11 ± 0.42
LNCGHYQIASGF | 0.393 ± 0.72
LNCPFYIFFLLHTVSA | 6.608 ± 0.065
LNGVNLRGFTRWLVGCGDVD | 0.141 ± 0.65
LNKTSFPWLKSYKVWRNVMD | 1.71 ± 0.58
LNLWPIDANVGWLWKRWRWR | -0.538 ± 2.1
LNNYNGVTVGWGNSWYLYLG | -0.116 ± 0.45
LNSRHVNSYF | 0.869 ± 0.48
LNTVSEITVVAKLNF | 2.3 ± 0.12
